Experimental data as given in article PMC9354549, “SARS-CoV-2 Nucleocapsid Protein Has DNA-Melting and Strand-Annealing Activities With Different Properties From SARS-CoV-2 Nsp13”.

Legend:
[1] = target: SARS-CoV-2 nonstructural protein 13 (CoV-2 Nsp13) (SARS-CoV-2, UniProt P0DTD1 5325-5925); assay: fluorescence anisotropy; Fluorescence anisotropy, 50 mM Tris-HCl pH 7.0 with 300 mM NaCl ([…]) or 20 mM NaCl ([…]; temperature not stated; settings: protein: recombinant; tags: 6xHis-SUMO, removed with SUMO protease; label: 3'-FAM (fluorescein); single strand, 43 nt
[2] = target: SARS-CoV-2 nucleocapsid protein (CoV-2 N) (SARS-CoV-2 (2019-nCoV), UniProt P0DTC9 1-419); assay: fluorescence anisotropy; 300 mM NaCl; 5 nM DNA; Kd was fitted but its value is only in Figure 7A; Fluorescence anisotropy, 50 mM Tris-HCl pH 7.0 with 300 mM NaCl (N) or 20 mM NaCl (Nsp13); 5 min equilibration, second reading after 10 min; temperature not stated; settings: protein: recombinant; chain copies: 2; label: 3'-FAM (fluorescein); single strand, 43 nt

Binder: CTGTAGGAATGTGAAATAAAAACGATGTTTTATTTACATTGTA (ssDNA) [S43]
- binding result [1]: binds
- binding result [2]: binds
